Measured values from the supplement of paper PMC9170038.

Test system: MS2 coat protein
Assay: apparent KD of MS2 coat protein; designed switch direction (-1 OFF switch, 1 ON switch): -1; higher = weaker reporter binding
Method in brief: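 RNA switches sharing common flanks were transcribed by stalled E. coli RNA polymerase on Illumina chips. A doubling series of SNAP-549-labelled MS2 coat protein, from 0.7 or 1.5 nM to 3 µM, was applied in Tris-HCl pH 7.5 buffer with KCl, MgCl2, BSA, DTT, tRNA and Tween-20. Each step lasted 0.8–1.5 h at the bottom of the series and 10–20 min at the top. Normalised cluster fluorescence was curve-fitted, giving apparent KD as the per-design median over clusters.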

[1] = Eterna round: R95, input ligand: FMN 200 uM
[2] = Eterna round: R95, input ligand: microRNA oligo, concentration not stated
[3] = Eterna round: R95, input ligand: none
[4] = input ligand: microRNA oligo, concentration not stated

Sequence	apparent KD of MS2 coat protein (input ligand: FMN 200 uM)	apparent KD of MS2 coat protein (input ligand: none)	apparent KD of MS2 coat protein [2]	also measured
GAAGAUCGAGUUAGGAUAUGAUUACUAUCCGAAAAUCAGAAGGAACUUGAGGAUCACCCAAGUUUAGAAGAAAU [JR_BMEx4_Sub052] (Eterna round: R97, puzzle: Brourd's mod of Exclusion 4)	18.2 nM	14.7 nM	–	–
GAAUAACAAGUGAGGAUAUGGAGUUGGGAGCCAGUUCAGAAGGCACAUGAGGAUCACCCAUGUGAACCGCAGCU [Eternabot (L2) Solution 45] (Eterna round: R97, puzzle: Brourd's mod of Exclusion 4)	16.9 nM	14.5 nM	–	–
GAAUAGAGAGGAUAUGCGUAGUAGGUAGUAAGAUAUAUCUGACAUGAGGAUCACCCAUGUAGAAGGCUCAGAUC [EX2 #3] (Eterna round: R97, puzzle: Exclusion 2)	40.1 nM	35.2 nM	–	–
GAAUAGCGAGGAUAUGCAAUGAAGAUCGUACGAUAUGGCUGACAUGAGGAUCACCCAUGUAGAAGGCGCUGAUC [EX2 #14] (Eterna round: R97, puzzle: Exclusion 2)	55.1 nM	53.7 nM	–	–
GAAUCGACAGGAUAUACAUGAGGAUCACCCAUGUAGUCAGAGAUGAUACCUCAACCUAGUAGAAGGGUCAGCGG [Eternabot (L2) Solution 17] (Eterna round: R97, puzzle: Exclusion 3)	45.5 nM	25 nM	–	–
GAAUGAGAGCAGGAUAUCUUAUAAAUGUAUGAAAGAGAAGGGCUCACAUGAGGAUCACCCAUGUGGUCCUAGAA [jl-ex6-4.78 jandersonlee mod] (Eterna round: R97, puzzle: Exclusion 6)	506 nM	36.9 nM	–	–
GACAGGGCAGGAUAUCGAGAUCCGCACAUGAGGAUCACCCAUGUUCAGUCGAAAGACUGACGAGAAGGGCCGUGUC [Omei Ex5 E4] (Eterna round: R97, puzzle: Exclusion 5)	1190 nM	1390 nM	–	–
GACCCGUCAGGAUAUACAUGAGGAUCACCCAUGUAAUCAGCGAUAGGACAAGGCUCACGUAGAAGGGACAGGGU [Eternabot (L1) Solution 33] (Eterna round: R97, puzzle: Exclusion 3)	44.6 nM	22.8 nM	–	–
GACCCUAGGGUCAGAUGCACAAGCUUUUUGCUCGUUUUAACAUGAGGAUCACCCAUGUCUAGUGGAUCUGAUCGGGC [Erorente] (puzzle: Sensor v3, turn-off variant 2)	–	–	88.8 nM	apparent KD of MS2 coat protein [1]: 20.6 nM; apparent KD of MS2 coat protein [3]: 18.2 nM
GACCGGUAAGGAUAUGUAUCUUUCAGGACACUACCGAAGAUGCAGAAGGUACAUGAGGAUCACCCAUGUGGGCU [Eternabot (L1) Solution 36] (Eterna round: R97, puzzle: Exclusion 4)	227 nM	75.8 nM	–	–
GACCUAUAGGUAGGAUAUCAUUGCGAUUAGCUAUGAGAAGGACCACAUGAGGAUCACCCAUGUCCUCUAAUUAGCCAUUUGGUC [Fiskers ExNg1 - 8] (Eterna round: R96, puzzle: Exclusion NG 1)	–	–	–	apparent KD of MS2 coat protein [4]: 338 nM
GACCUUCCUGUAAGGAUAUCCAUGUAUCAAAGCAUGGAGAAGGUACAUGAGGAUCACCCAUGUCACCCGCGUUA (Eterna round: R97, puzzle: Brourd's mod of Exclusion 4)	17.7 nM	11.7 nM	–	–
GACUGCCGAGGAUAUACAUGAGGAUCACCCAUGUGCUUCAGCAUUUAAUAAUGCAUGGGUAGAAGGCGGUAGUC [LRO-Excl3-12] (puzzle: Exclusion 3)	–	–	40.5 nM	–
GACUGCCGAGGAUAUACAUGAGGAUCACCCAUGUGCUUCAGCAUUUUUUAAUGCAUGGGUAGAAGGCGGUAGUC [LRO-Excl3-13] (puzzle: Exclusion 3)	–	–	29.6 nM	–
GACUGGACGUGGUCUGGUUACAUGAGGAUCACCCAUGUAGGUCUAAGAACAUGCCUUUUGUACGCUCGUCUUAUAUA [JR_SV3TOV1_Sub065] (puzzle: Sensor v3, turn-off variant 1)	–	–	20.7 nM	apparent KD of MS2 coat protein [1]: 37.9 nM; apparent KD of MS2 coat protein [3]: 39.6 nM
GACUUCUCUGAGGAUAUUGCAUCAUACGAUAAAUAAGAAGGCAGAACAUGAGGAUCACCCAUGUGGGUUUCAAG [Bingo-Bango-34] (Eterna round: R97, puzzle: Exclusion 6)	170 nM	81.4 nM	–	–
GACUUCUCUGAGGAUAUUGCAUCAUACGAUAAAUAAGAAGGCAGAACAUGAGGAUCACCCAUGUGGGUUUUUAG [Bingo-Bango-32] (Eterna round: R97, puzzle: Exclusion 6)	135 nM	68.6 nM	–	–
GACUUCUGAGGAUAUACAUAGAUUUACAUGAGGAUCACCCAUGUUCCUCUAUGUAUAAAUGUAGAAGGCAGAAGAU [Mat - Exclusion 5 - JL Mod - D66] (Eterna round: R97, puzzle: Exclusion 5)	73.8 nM	13.2 nM	–	–

Sequence	apparent KD of MS2 coat protein (input ligand: FMN 200 uM)	apparent KD of MS2 coat protein (input ligand: none)	apparent KD of MS2 coat protein [2]	also measured
GACUUGUCAGGAUAUCUUACAUUAACAUCGUAGUUACCGUUGGAGAAGGGACAUGAGGAUCACCCAUGUUUGGC [tap-tap-tappy25] (Eterna round: R97, puzzle: Exclusion 4)	41.8 nM	28.7 nM	–	–
GAGAAACAUGAGGAUCACCCAUGUAAGGAUAUGGCGAGAGCUGGAGUACUAGCGCCGUUCAGAAGGUACAUGAG [Eternabot (L2) Solution 27] (Eterna round: R97, puzzle: Exclusion 1)	218 nM	95.9 nM	–	–
GAGAACUGAGGAUAUACAUGAGGAUCACCCAUGUUAAGAAGAUAGUAUUGAUGGUUCUGUAGAAGGCAGAGAGA [JR_Ex3_Sub066] (Eterna round: R97, puzzle: Exclusion 3)	34.5 nM	30.8 nM	–	–
GAGAAGGUAGGAUAUACGAAGAAAGAGGGUAGGAAUAAGACACAUGAGGAUCACCCAUGUAGAAGGACCAAGAG [Mat - Exclusion 2 - Mod of my Tesla design - D49] (puzzle: Exclusion 2)	–	–	21.2 nM	apparent KD of MS2 coat protein [1]: 32.4 nM; apparent KD of MS2 coat protein [3]: 22.9 nM
GAGAAGUGAGGAUAUGCGAUAAGGAUGAAAGGAAGGAAUGAGUAGAAGGCACAUGAGGAUCACCCAUGUAGAGU [JR_Exclu4_Sub080] (puzzle: Exclusion 4)	–	–	21.3 nM	apparent KD of MS2 coat protein [1]: 25.3 nM; apparent KD of MS2 coat protein [3]: 21 nM
GAGAGACGAGGAUAUGCAGGAGUGCAGUCAGGUUCCAAAAUACAUGAGGAUCACCCAUGUAGAAGGUGUCAUCU [Eternabot (L2) Solution 26] (Eterna round: R97, puzzle: Exclusion 2)	16.6 nM	15.6 nM	–	–
GAGAGAGACAUAGGAUAUUCACCCACACAUGAGGAAGAAGGAUGUAGACAUGAGGAUCACCCAUGUGGAUCACCCAUGUUUGUG [All by luck] (Eterna round: R96, puzzle: Exclusion NG 1)	22 nM	24.7 nM	–	apparent KD of MS2 coat protein [4]: 12.1 nM
GAGAUACAUGAGGAUCACCCAUGUGAGGAUAUGAGCACGCCGGUGACGGUGAUAAGAAUCAGAAGGCACAAUGG [Mat - Exclusion 1 - JL Mod - D31] (Eterna round: R97, puzzle: Exclusion 1)	338 nM	453 nM	–	–
GAGAUGUGAGGAUAUCUAGACCGCGAAAGAGCCGCGGUCCGAGAGAAGGCACAUGAGGAUCACCCAUGUGAUGA [Tiesri] (puzzle: Exclusion 4)	–	–	39.4 nM	–
GAGCAGUGAGGAUAUACAUGAGGAUCACCCAUGUAAUGGUAGUCGGGAUUAAUUUGGUGUAGAAGGCGCUUAUU [JR_Ex3_Sub021] (Eterna round: R97, puzzle: Exclusion 3)	64 nM	79.9 nM	–	–
GAGCCAUCGUGAGAUGGCUAAUUUACAUGAGGAUCACCCAUGUAGGAUAUCGAUUGCUUUGCAGUCGAGAAGGACAUGUUUAAU [JL ENG3 3.98] (Eterna round: R96, puzzle: Exclusion NG 3)	71.6 nM	36.2 nM	–	apparent KD of MS2 coat protein [4]: 28.3 nM
GAGGGACAUGAGGAUCACCCAUGUGAGGAUAUGUAAGAGAGAAGAGAGAGGAUAAGAAACAGAAGGCGCGGGAG [JR_Exclu1_Sub090] (puzzle: Exclusion 1)	–	–	44 nM	apparent KD of MS2 coat protein [1]: 33.9 nM; apparent KD of MS2 coat protein [3]: 77.1 nM
GAGUACUUAGGAUAUACAUGAGGAUCACCCAUGUCUAGGCGGCGCUGGGUCCCUCGCAGUAGAAGGAAGCGCUG [Ceeranat] (puzzle: Exclusion 3)	–	–	20.6 nM	–
GAGUGACAUGAGGAUCACCCAUGUGAGGAUAUCCGAUGGACCAAAUUAACAAUAGAAGGGAGAAGGCGCAUAAA [Exclusion 1 V8] (puzzle: Exclusion 1)	–	–	152 nM	apparent KD of MS2 coat protein [1]: 133 nM; apparent KD of MS2 coat protein [3]: 158 nM
GAGUGACAUGAGGAUCACCCAUGUGAGGAUAUCGGACGGACCUAGUUAACAUCCGCCGCGAGAAGGCACAUCGG [Exclusion 1 V23] (puzzle: Exclusion 1)	–	–	136 nM	–
GAGUUACAUGAGGAUCACCCAUGUGAGGAUAUGAGUCAGUCACGGUGACGUGGCUGACUCAGAAGGCACAAAGG [Mat - Exclusion 1 - JL Mod - D37] (Eterna round: R97, puzzle: Exclusion 1)	186 nM	83.8 nM	–	–
GAUAGAGAGCAGGAUAUCUUAGAAAUGUAUUAUAGAGAAGGGCUCACAUGAGGAUCACCCAUGUGGUCCUAGAU [JL Dibiri mod 15] (Eterna round: R96, puzzle: Exclusion 6)	94.3 nM	19.6 nM	–	apparent KD of MS2 coat protein [4]: 14.4 nM
GAUAGAGAGCAGGAUAUCUUAGAAAUGUAUUAUAGAGAAGGGCUCACAUGAGGAUCACCCAUGUGGUCCUAGAU [JL Dibiri mod 15] (puzzle: Exclusion 6)	–	–	16 nM	–
